{"source": "the RNAGym collection of RNA variant scans (doi:10.1073/pnas.2313332121)", "parents": {"B1": {"name": "TPR t1 (parent)", "chain": "GACCAAUCUGCCCUCAGAGCUCGAGAACAUCUUCGGAUGCAGAGGAGGCAGGCUUCGGUGGCGCGAUAGCGCCAACGUCCUCAACCUCCAAUGCAUCCCACCACAUGAUGAUGCCUGAAGAGCCUUGGUUUUUUG"}}}
{"variants_of": "B1", "experiment": "polymerase ribozyme fitness, log enrichment relative to wild type (log ratio); higher = more active; in vitro selection for triplet polymerase activity", "how_it_was_run": "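Genotype fitness is the logarithm of its enrichment divided by wild-type enrichment, using inverse-variance-weighted averages of replicates. That logarithm is base 2. Enrichment was measured by Illumina sequencing of input and output libraries from one triplicate in vitro selection round, with frozen incubation at −7 °C, on PCR-built, transcribed mutant libraries of each subunit of a heterodimeric triplet polymerase ribozyme, retaining genotypes with ≥10 input reads and ≥1 read per output.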"}
{"variant": "C8A C20U G113U A118U", "polymerase ribozyme fitness (log ratio)": -0.316}
{"variant": "C8G G35C A50U A118U", "polymerase ribozyme fitness (log ratio)": -5.01}
{"variant": "U7G U9A G10C A18G A29C", "polymerase ribozyme fitness (log ratio)": -4.02}
{"variant": "C8A G10C A50U C72U", "polymerase ribozyme fitness (log ratio)": -1.02}
{"variant": "C8G G47C C82U", "polymerase ribozyme fitness (log ratio)": -1.06}
{"variant": "C8G C20G C72U A95G", "polymerase ribozyme fitness (log ratio)": -3.64}
{"variant": "U7G G51C U55C C73A", "polymerase ribozyme fitness (log ratio)": -3.19}
{"variant": "C8A C12A C70U G77C U92A G127U U130G U131A", "polymerase ribozyme fitness (log ratio)": -6.59}
{"variant": "C8G C11G C56A C104A", "polymerase ribozyme fitness (log ratio)": -1.39}
{"variant": "U7G G52A U106C G122U U131G", "polymerase ribozyme fitness (log ratio)": -0.951}
{"variant": "C8G C28A C72G", "polymerase ribozyme fitness (log ratio)": -3.76}
{"variant": "U7G U9A G120C", "polymerase ribozyme fitness (log ratio)": 1.99}
{"variant": "U7C G61A U81G U116G C124A", "polymerase ribozyme fitness (log ratio)": -2.26}
{"variant": "C8G G10U G42A G45C", "polymerase ribozyme fitness (log ratio)": -3.03}
{"variant": "U7C C11G A100C G120A", "polymerase ribozyme fitness (log ratio)": 1.21}
{"variant": "U7G C56A", "polymerase ribozyme fitness (log ratio)": 0.0403}
{"variant": "C8G A103U", "polymerase ribozyme fitness (log ratio)": -3.34}
{"variant": "U7G C8U C70G", "polymerase ribozyme fitness (log ratio)": -1.52}
{"variant": "C8G G45C G51U G65A G113U C123U", "polymerase ribozyme fitness (log ratio)": -7.22}
{"variant": "U7G G48U C70A C86G", "polymerase ribozyme fitness (log ratio)": -1.54}
{"variant": "C8A C56G A91C C123A", "polymerase ribozyme fitness (log ratio)": 0.619}
{"variant": "C8A C123A C124U G127U", "polymerase ribozyme fitness (log ratio)": 0.694}
{"variant": "C8A C28A G45A C56G G69U", "polymerase ribozyme fitness (log ratio)": -2.82}
{"variant": "C8A C15U A46U A118G", "polymerase ribozyme fitness (log ratio)": -1.21}
{"variant": "C8G C49G G71A U87A C124U", "polymerase ribozyme fitness (log ratio)": 0.992}
{"variant": "C8A A83C A100C", "polymerase ribozyme fitness (log ratio)": -0.702}
{"variant": "C8A C72G C85A A111G U126C", "polymerase ribozyme fitness (log ratio)": -1.51}
{"variant": "C8A C40U C53A", "polymerase ribozyme fitness (log ratio)": 0.276}
{"variant": "C8A G51U C53G U81G C114A", "polymerase ribozyme fitness (log ratio)": -5.79}
{"variant": "C8A A26G C56G C115U", "polymerase ribozyme fitness (log ratio)": -1.74}
{"variant": "U7G C79U U81C C86U C88A U125A", "polymerase ribozyme fitness (log ratio)": -4.3}
{"variant": "C8G C76U", "polymerase ribozyme fitness (log ratio)": -0.187}
{"variant": "C8A C12G U54A", "polymerase ribozyme fitness (log ratio)": 0.0252}
{"variant": "C8A G63C C86A G93C", "polymerase ribozyme fitness (log ratio)": -3.35}
{"variant": "C8A C28G U96A", "polymerase ribozyme fitness (log ratio)": -3.08}
{"variant": "U7G G77A A83C", "polymerase ribozyme fitness (log ratio)": 0.167}
{"variant": "U7G C12U G36A C40A G45A G71U", "polymerase ribozyme fitness (log ratio)": -3.31}
{"variant": "C8A C72U U133A", "polymerase ribozyme fitness (log ratio)": -0.145}
{"variant": "C8G C34G C88U U112C G113A", "polymerase ribozyme fitness (log ratio)": -6.08}
{"variant": "C8G G10A C20U A24U C49U G61A C80G G120U", "polymerase ribozyme fitness (log ratio)": -7.85}
{"variant": "C8G C15U A18C C53A U55A C56G", "polymerase ribozyme fitness (log ratio)": -1.96}
{"variant": "U7G A46U", "polymerase ribozyme fitness (log ratio)": -1.38}
{"variant": "C8A U9G U21G", "polymerase ribozyme fitness (log ratio)": -1.13}
{"variant": "U7G C28G U106A", "polymerase ribozyme fitness (log ratio)": -1.02}
{"variant": "U7C C56A G71U A90C", "polymerase ribozyme fitness (log ratio)": -3.95}
{"variant": "U7G G36U U96C C104U", "polymerase ribozyme fitness (log ratio)": -3.09}
{"variant": "C8A G69A G120C", "polymerase ribozyme fitness (log ratio)": -1.1}
{"variant": "C8G C11U C40U A90G C97U U129G", "polymerase ribozyme fitness (log ratio)": -1.14}
{"variant": "C8A C79U C98G C114U", "polymerase ribozyme fitness (log ratio)": -6.7}
{"variant": "C8G C12A U109A A119C A121G", "polymerase ribozyme fitness (log ratio)": -5.47}
{"variant": "C8A C49U C72A A100C U106G U109A U132C", "polymerase ribozyme fitness (log ratio)": -4.59}
{"variant": "C8A C20G G45U C73U C123G", "polymerase ribozyme fitness (log ratio)": -5.63}
{"variant": "C8G C73G G128A", "polymerase ribozyme fitness (log ratio)": -1.19}
{"variant": "U7G A84U G127A", "polymerase ribozyme fitness (log ratio)": -0.135}
{"variant": "C8G C62U A118U U131C", "polymerase ribozyme fitness (log ratio)": 1.45}
{"variant": "C8G A50C C72A G93A", "polymerase ribozyme fitness (log ratio)": -0.538}
{"variant": "U7C C72U", "polymerase ribozyme fitness (log ratio)": 0.588}
{"variant": "C8G G44A U92A C97U", "polymerase ribozyme fitness (log ratio)": -2.59}
{"variant": "C8A G25U", "polymerase ribozyme fitness (log ratio)": -4.13}
{"variant": "C8G C20U G42U A83U U116C C123A", "polymerase ribozyme fitness (log ratio)": -3.74}
{"variant": "C8G C20U A68G G113C", "polymerase ribozyme fitness (log ratio)": -5.52}
{"variant": "C8G A27U C104A U133A", "polymerase ribozyme fitness (log ratio)": -3.65}
{"variant": "U7G C12U C15A C22G C104U", "polymerase ribozyme fitness (log ratio)": -3.41}
{"variant": "U7G C72U U81A A91C G107C U112C", "polymerase ribozyme fitness (log ratio)": -5.54}
{"variant": "C8G C15U G69C A90U", "polymerase ribozyme fitness (log ratio)": -3.02}
{"variant": "C8G C89A A105U", "polymerase ribozyme fitness (log ratio)": -3.66}
{"variant": "C8A C86G C102U C104U G110A", "polymerase ribozyme fitness (log ratio)": -4.28}
{"variant": "C8A C49U C73U U130A", "polymerase ribozyme fitness (log ratio)": -0.88}
{"variant": "C8A A91C G117C", "polymerase ribozyme fitness (log ratio)": -2.17}
{"variant": "C8A C15A G52C C80A", "polymerase ribozyme fitness (log ratio)": -4.36}
{"variant": "C8G G10U G36U", "polymerase ribozyme fitness (log ratio)": -0.687}
{"variant": "C8A G61A U131C", "polymerase ribozyme fitness (log ratio)": 0.52}
{"variant": "C8A A41U G61A C86A", "polymerase ribozyme fitness (log ratio)": -1.24}
{"variant": "U7C G107A U109A", "polymerase ribozyme fitness (log ratio)": -4.11}
{"variant": "C8G C85U", "polymerase ribozyme fitness (log ratio)": -0.269}
{"variant": "C8G G25A A26G C73U G128A", "polymerase ribozyme fitness (log ratio)": -4.47}
{"variant": "C8G G39C C62A", "polymerase ribozyme fitness (log ratio)": -0.386}
{"variant": "C8G C20U C89A A100U C102A", "polymerase ribozyme fitness (log ratio)": -5.22}
{"variant": "U7G C8A G44A C123A", "polymerase ribozyme fitness (log ratio)": 1.17}
{"variant": "C8G G36C A84U C115U G122U", "polymerase ribozyme fitness (log ratio)": -1.01}
{"variant": "U7G U32A A46U G77A C104A A105U C123G", "polymerase ribozyme fitness (log ratio)": -4.45}
{"variant": "C8A U67C", "polymerase ribozyme fitness (log ratio)": -3.31}
{"variant": "U7G G60U", "polymerase ribozyme fitness (log ratio)": -0.565}
